Results reported in paper PMC2873105 (Virology, 2010).

Target: the molecule itself
Experiment: native gel or EMSA

B1: MBP-Rep78 (adeno-associated virus type 2 Rep78 fused to MBP) (enzyme)
chain: MPGFYEIVIKVPSDLDGHLPGISDSFVNWVAEKEWELPPDSDMDLNLIEQAPLTVAEKLQRDFLTEWRRVSKAPEALFFVQFEKGESYFHMHVLVETTGVKSMVLGRFLSQIREKLIQRIYRGIEPTLPNWFAVTKTRNGAGGGNKVVDECYIPNYLLPKTQPELQWAWTNMEQYLSACLNLTERKRLVAQHLTHVSQTQEQNKENQNPNSDAPVIRSKTSARYMELVGWLVDKGITSEKQWIQEDQASYISFNAASNSRSQIKAALDNAGKIMSLTKTAPDYLVGQQPVEDISSNRIYKILELNGYDPQYAASVFLGWATKKFGKRNTIWLFGPATTGKTNIAEAIAHTVPFYGCVNWTNENFPFNDCVDKMVIWWEEGKMTAKVVESAKAILGGSKVRVDQKCKSSAQIDPTPVIVTSNTNMCAVIDGNSTTFEHQQPLQDRMFKFELTRRLDHDFGKVTKQEVKDFFRWAKDHVVEVEHEFYVKKGGAKKRPAPSDADISEPKRVRESVAQPSTSDAEASINYADRYQNKCSRHVGMNLMLFPCRQCERMNQNSNICFTHGQKDCLECFPVSESQPVSVVKKAYQKLCYIHHIMGKVPDACTACDLVNVDLDDCIFEQ
binding result: binds
